We go through 5 molecules from patent publication US20190016815A1 (TRACON PHARMACEUTICALS, published 2019).

Assay [1] addresses T1, human CD105 (R&D Systems Cat. No. 1097-EN) (human, UniProt P17813 26-586).
T1 construct: Bought protein, captured on the plate by mouse anti-human CD105 (Southern Biotechnologies 9811-01); also called human endoglin
T1 sequence (looked up): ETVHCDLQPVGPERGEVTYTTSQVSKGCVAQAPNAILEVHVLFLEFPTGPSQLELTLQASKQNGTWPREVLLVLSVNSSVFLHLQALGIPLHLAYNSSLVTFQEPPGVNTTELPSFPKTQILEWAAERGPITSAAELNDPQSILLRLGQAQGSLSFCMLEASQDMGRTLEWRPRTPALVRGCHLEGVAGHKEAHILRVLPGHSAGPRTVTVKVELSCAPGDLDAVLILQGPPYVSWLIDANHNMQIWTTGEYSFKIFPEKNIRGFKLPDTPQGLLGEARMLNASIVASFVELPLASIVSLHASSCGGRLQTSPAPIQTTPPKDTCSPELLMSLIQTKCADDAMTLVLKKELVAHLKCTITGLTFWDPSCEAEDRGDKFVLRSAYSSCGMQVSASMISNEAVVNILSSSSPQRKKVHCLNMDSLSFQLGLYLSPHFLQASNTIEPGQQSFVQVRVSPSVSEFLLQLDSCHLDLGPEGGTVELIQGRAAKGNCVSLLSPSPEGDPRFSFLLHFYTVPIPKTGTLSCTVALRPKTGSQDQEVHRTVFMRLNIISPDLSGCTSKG
The assay is described as follows: competition ELISA on captured human CD105; human BMP9 against biotinylated TRC205 (55 ng/ml). The method, then: (§1) After washing three times with PBST, a three-fold dilution series of either human BMP9 (R&D Systems Cat. No. 3209-BP-010) (413 nM to 0.56 nM), or unlabelled TRC205 antibody (40 nM to 0.05 nM) or a single concentration of an irrelevant antibody (66 nM) was mixed with a fixed concentration of biotinylated TRC205 antibody (55 ng/ml) and added to the plate. Following incubation for 1 hour at room temperature, the plate was washed three times with PBST and binding of the biotinylated TRC205 antibody was detected using streptavidin-HRP (Sigma Cat. No. 55512) and TMB substrate (Sigma Cat. No. T0440). OD450 nm values were measured on a Dynex MRX TCII plate reader.

Assay [2] has as its target T1, human CD105 (R&D Systems Cat. No. …). The assay is described as follows: competition ELISA on captured human CD105; unlabelled TRC205 against biotinylated TRC205 (55 ng/ml). The method, then: as §1
The target is the same in assay [3]. The assay is described as follows: competition ELISA on human CD105 captured on the plate (100 ng/ml); competitor: biotinylated chimeric anti-CD105 at 6.25 ng/ml; streptavidin-HRP, TMB, OD450. The procedure:
FIGS. 6A-6F. Anti-CD105 competition ELISA with humanized and humanized/deimmunized antibodies. […] Binding was detected via streptavidin-HRP and TMB substrate. Absorbance (OD) at 450 nm was measured on a plate reader and this was plotted against the test antibody concentration. FIG. 6A provides the results from the chimeric control compared to VK1VH1, VK1VH2, VK2VH1 and VK2VH2. FIG. 6B provides the results from the chimeric control compared to VK1VH1, VK2AVH1A, VK2SAVH1Q, VK2SAVH1R and VK2SAVH1S. FIG. 6C provides the results from the chimeric control compared to VK2AAVH1A2, VK2ASVH1A2, VK2ASVH1Q, VK2SSVH1A and VK2SSVH1Q. FIG. 6D provides the results from the chimeric control compared to VK2VH1, VK2AAVH1A, VK2AAVH1Q, VK2AAVH1R and VK2AAVH1S. FIG. 6E provides the results from the chimeric control compared to VK2VH1, VK2ASVH1A, VK2ASVH1R, VK2ASVH1S, and VK2SAVH1A2. FIG. 6F provides the results from the chimeric control compared to VK2VH1, VK2SSVH1Q, VK2SSVH1A2, VK2SSVH1R and VK2SSVH1S.
Antibodies were tested in a competition ELISA for binding to CD105 against biotinylated chimeric anti-CD105. Briefly, chimeric anti-CD105 was biotinylated using a micro-biotinylation kit (Sigma, Catalog No. BTAG-1KT) following the manufacturer's instructions. […] Binding of the biotinylated chimeric antibody was detected via streptavidin-HRP (Sigma, Catalog No. 55512) and TMB substrate (Sigma, Catalog No. T0440). OD450 nm values were measured on a Dynex MRX TCII plate reader. The results of the competition analysis are illustrated in FIG. 6.

B1: human BMP9 (R&D Systems Cat. No. 3209-BP-010) (ligand, UniProt Q9UK05 320-429, looked up)
chain: SAGAGSHCQKTSLRVNFEDIGWDSWIIAPKEYEAYECKGGCFFPLADDVTPTKHAIVQTLVHLKFPTKVGKACCVPTKLSPISVLYKDDMGVPTLKYHYEGMSVAECGCR
notes: Bought protein
With B1, the IC50 in assay [1] is 0.35 µg/mL.

B2: TRC205 antibody (antibody, IgG4, V domains shown)
VH: EVQLVESGGGLVKPGGSLRLSCAASGFTFSDAWMDWVRQAPGKGLEWVGEARSKASNHATYYAESVKGRFTISRDDSKNTLYLQMNSLKTEDTAVYYCTRWRRFFDSWGQGTLVTVSS
VL: DIQMTQSPSSLSASVGDRATITCRASSSVSYMHWYQQKPGKAPKPWAYATSNLASGVPSRFSGSGSGTDYTLTISSLQPEDFATYYCQQWSSNPLTFGGGTKVEIK
notes: IgG4); Biotinylated with a Lightning-Link kit for the direct ELISA and as the labelled tracer; also called biotinylated TRC205; unlabelled TRC205
As to B2, the IC50 in assay [2] came to 0.26 µg/mL.

B3: VK2SSVH1R (antibody, V domains shown)
VH: EVQLVESGGGLVKPGGSLRLSCAASGFTFSDAWMDWVRQAPGKGLEWVGEIRSRASNHATYYAESVKGRFTISRDDSKNTLYLQMNSLKTEDTAVYYCTRWRRFFDSWGQGTLVTVSS
VL: DIQLTQSPSSLSASVGDRVTISCRASSSVSYMHWYQQKPGKAPKPWIYASSNLASGVPSRFSGSGSGTDYTLTISSLQPEDFATYYCQQWSSNPLTFGGGTKVEIK
With B3, the binding result in assay [3] is on record as “binds”.

B4: VK2ASVH1R (antibody, V domains shown)
VH: EVQLVESGGGLVKPGGSLRLSCAASGFTFSDAWMDWVRQAPGKGLEWVGEIRSRASNHATYYAESVKGRFTISRDDSKNTLYLQMNSLKTEDTAVYYCTRWRRFFDSWGQGTLVTVSS
VL: DIQLTQSPSSLSASVGDRATITCRASSSVSYMHWYQQKPGKAPKPWIYASSNLASGVPSRFSGSGSGTDYTLTISSLQPEDFATYYCQQWSSNPLTFGGGTKVEIK
Regarding B4, the binding result in assay [3] was “binds”.

B5: VK2ASVH1A (antibody, V domains shown)
VH: EVQLVESGGGLVKPGGSLRLSCAASGFTFSDAWMDWVRQAPGKGLEWVAEIRSKASNHATYYAESVKGRFTISRDDSKNTLYLQMNSLKTEDTAVYYCTRWRRFFDSWGQGTLVTVSS
VL: DIQLTQSPSSLSASVGDRATITCRASSSVSYMHWYQQKPGKAPKPWIYASSNLASGVPSRFSGSGSGTDYTLTISSLQPEDFATYYCQQWSSNPLTFGGGTKVEIK
With B5, the binding result in assay [3] is given as “binds”.
